Reference: paper PMC11609450, “Structure function analysis of ADP-dependent cyanobacterial phosphofructokinase reveals new phylogenetic grouping in the PFK-A family” (The Journal of Biological Chemistry, 2024)

Key:
[1] = target: T1, PFK-A1 (Sll1196) (Synechocystis sp. PCC 6803, UniProt P72830); test: coupled NADH assay, effector test; format: biochemical; settings: read-out: % residual activity at 1 mM
T1 construct: gene pfkA1

[2] = target: T2, PFK-A2 (Sll0745) (Synechocystis sp. PCC 6803, UniProt Q55988); test: coupled NADH assay (aldolase/TPI/GPDH), […] nm; global MWC fit; format: biochemical
T2 construct: gene pfkA2

[3] = target: T3, PFK-A1 from A. brasilense (Azospirillum brasilense, UniProt A0A560AK87); test: coupled NADH assay, phosphate donor specificity; format: biochemical; settings: 1 mM F6P, 2 mM ADP, 10 mM MgCl2, pH 7.7, 30 °C
T3 construct: gene pfkA; codon-optimized gene in pET15b, His tag, E. coli Rosetta (DE3), IMAC
T3 sequence (A0A560AK87 1-361): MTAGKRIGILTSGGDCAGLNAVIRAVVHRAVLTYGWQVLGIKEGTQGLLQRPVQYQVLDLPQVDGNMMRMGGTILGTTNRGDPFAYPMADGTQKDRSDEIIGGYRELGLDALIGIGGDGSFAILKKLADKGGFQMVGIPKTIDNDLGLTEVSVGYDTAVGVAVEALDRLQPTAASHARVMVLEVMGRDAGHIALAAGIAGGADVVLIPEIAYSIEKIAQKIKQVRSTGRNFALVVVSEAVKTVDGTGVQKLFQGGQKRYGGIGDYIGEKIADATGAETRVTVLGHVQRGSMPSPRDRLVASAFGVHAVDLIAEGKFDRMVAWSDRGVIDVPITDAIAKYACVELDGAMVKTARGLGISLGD

[4] = target: T4, PFK-A2 from M. aeruginosa PCC 9808 (Microcystis aeruginosa, UniProt I4HJC6); test: coupled NADH assay, phosphate donor specificity; format: biochemical; settings: 1 mM F6P, 2 mM ADP, 10 mM MgCl2, pH 7.7, 30 °C
T4 construct: gene pfkA; codon-optimized gene in pET15b, His tag, E. coli Rosetta (DE3), IMAC
T4 sequence (I4HJC6 1-402): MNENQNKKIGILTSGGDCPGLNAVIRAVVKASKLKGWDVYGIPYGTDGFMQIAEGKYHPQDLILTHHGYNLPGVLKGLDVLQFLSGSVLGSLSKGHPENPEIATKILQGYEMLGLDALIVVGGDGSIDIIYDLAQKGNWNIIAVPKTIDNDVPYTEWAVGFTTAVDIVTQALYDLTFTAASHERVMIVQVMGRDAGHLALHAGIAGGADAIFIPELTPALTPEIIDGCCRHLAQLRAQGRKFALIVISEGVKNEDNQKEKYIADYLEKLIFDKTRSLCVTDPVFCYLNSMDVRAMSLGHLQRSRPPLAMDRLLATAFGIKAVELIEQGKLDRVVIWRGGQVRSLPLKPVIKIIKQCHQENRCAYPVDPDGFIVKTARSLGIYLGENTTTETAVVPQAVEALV

[5] = target: T5, PFK-A1 from Crocosphaera subtropica (Crocosphaera subtropica, UniProt B1WQ98); test: coupled NADH assay, phosphate donor specificity; format: biochemical; settings: 1 mM F6P, 2 mM ADP, 10 mM MgCl2, pH 7.7, 30 °C
T5 construct: gene pfkA1; codon-optimized gene in pET15b, His tag, E. coli Rosetta (DE3), IMAC
T5 sequence (B1WQ98 1-360): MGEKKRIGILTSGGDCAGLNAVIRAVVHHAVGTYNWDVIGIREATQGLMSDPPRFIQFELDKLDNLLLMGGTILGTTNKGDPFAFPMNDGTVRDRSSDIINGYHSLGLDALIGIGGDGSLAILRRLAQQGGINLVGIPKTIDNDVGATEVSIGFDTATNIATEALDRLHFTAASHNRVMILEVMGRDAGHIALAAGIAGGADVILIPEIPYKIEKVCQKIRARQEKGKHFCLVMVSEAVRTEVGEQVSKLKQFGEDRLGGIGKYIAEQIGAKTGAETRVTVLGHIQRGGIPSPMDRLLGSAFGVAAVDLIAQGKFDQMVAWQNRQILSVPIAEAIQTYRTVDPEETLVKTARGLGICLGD

[6] = target: T1, PFK-A1 (Sll1196); test: coupled NADH assay (aldolase/TPI/GPDH), […] nm; global MWC fit; format: biochemical; settings: read-out: PFK-A11
[7] = target: the molecule itself; test: native MS; nanoESI, Exactive Plus EMR Orbitrap, positive EMR mode; protein rebuffered to 200 mM or 1 M ammonium acetate pH 6.8, 5 uM stock; PFK-A1 also with F6P; self-association
[8] = substrate: Nc1ncnc2c1ncn2[C@@H]1O[C@H](COP(=O)(O)OP(=O)(O)O)[C@@H](O)[C@H]1O; test: purified protein; format: biochemical, Synechocystis sp. PCC 6803; settings: MWC R-state constant, co-substrate F6P
[9] = target: the molecule itself; test: SEC; HiLoad 16/600 Superdex 200 prep grade, 50 mM HEPES/NaOH pH 7.5 (RT), 300 mM NaCl, 3 mM dithiothreitol, 1 ml/min; calibrated with five standard proteins; PFK-A1 applied at 5 mg/ml (62.5 uM), PFK-A2 at 7 mg/ml (87.5 uM); self-association

Molecule: C=C(OP(=O)(O)O)C(=O)O [PEP]
- remaining activity at 1000 µM [1]: 86%

Molecule: Nc1ncnc2c1ncn2[C@@H]1O[C@H](COP(=O)(O)OP(=O)(O)OP(=O)(O)O)[C@@H](O)[C@H]1O [ATP]
- Ki [2]: 200 µM
- remaining activity at 1000 µM [1]: 96%

Molecule: Nc1ncnc2c1ncn2[C@@H]1O[C@H](COP(=O)(O)OP(=O)(O)O)[C@@H](O)[C@H]1O [ADP]
- coupled NADH assay, phosphate donor specificity [3]: all three tested enzymes were specific for ADP and showed no activity with ATP
- coupled NADH assay, phosphate donor specificity [4]: all three tested enzymes were specific for ADP and showed no activity with ATP
- coupled NADH assay, phosphate donor specificity [5]: all three tested enzymes were specific for ADP and showed no activity with ATP

Molecule: O=C(O)[C@H](O)COP(=O)(O)O [3PG]
- Ki [6]: 110 µM

B1: Synechocystis sp. PCC 6803 ADP-dependent phosphofructokinase PFK-A2 (Sll0745) (enzyme, UniProt Q55988 1-384, looked up)
chain: MGTKRIGILTSGGDCPGLNAVIRAVVKASALKGWEVYGIPYGTDGFVEVAHGKYQAEDLLLTKHGYALPGMLKGLDVLQFLSGSVLGSLSKGHPEQPAIAEAILKGYAILDLEALIVIGGDGSLDIIYDLAQKGNWHIIAIPKTIDNDVPFTDLAVGFSTAVDIVTQALYDLTFTAASHERIIIVQVMGRDAGHLTLHAGIAGGADIILIPEITPCLTSEIIRNCCYQLMNLRKSGRHFALIVISEGVHDQNNKKNKHIADYLAEEISETSQHLCDIKDPAFCDLISLDIRATTLGHLQRSGTPLSFDRLLATVFGIRAVELIEQEIYDQVVIWRSGKVEHADLKPIISIIKECHQENRCPFPVDRDGFMVKTAKSLGIYLGED
notes: Phosphofructokinase isoenzyme PFK-A2 (sll0745) of Synechocystis sp; PCC 6803, amplified from genomic DNA with primers from the start codon (NdeI) to the stop codon (BamHI); calculated mass 43.64 kDa; Mainly dimer by SEC and native MS, with a lesser tetramer by native MS, so copies is left empty; No tag cleavage is described; also called ADP-PFK-A2; source: E. coli Rosetta (DE3), pET15b, purified …
- stoichiometry N [7]: 4
- Km ([8]; 5 mM MgCl2, pH 7.7, 30 °C): 0.17 (±0.03) mM
- kcat ([8]; 5 mM MgCl2, pH 7.7, 30 °C): 12.3 s⁻¹
- stoichiometry N [9]: 2

B2: Synechocystis sp. PCC 6803 ADP-dependent phosphofructokinase PFK-A1 (Sll1196) (enzyme, UniProt P72830 1-361, looked up)
chain: MGEIKRIGILTSGGDCAGLNAVIRSVVHHAIGTYGWEVIGIQEATQGLMENPSKAIALHRDNIDHLLMMGGTFLGTTNKGNPFAFPMADGTVRDRTEDIIAGYRQLGLDALIGIGGDGSLAILRRIAQQGGINLVGIPKTIDNDVGATEISIGFDTATNIATEALDRLHFTAASHNRVMVLEVMGRDAGHIALAAGIGGGADIILIPEIPYRIQSVCNKIRQRQAEGKNFCLVMVSEAVRTELGDQVKQIQQFGEDRYGGIGKYIAEQIAQRTGAETRVTVLGHIQRGGIPSPFDRLLGSVFGVAAVDLIAEGKFDHMVAWRNRQTISVPIEEAIQTYQTVQLDGTLVKTARGLGICLGND
notes: Phosphofructokinase isoenzyme PFK-A1 (sll1196) of Synechocystis sp; PCC 6803, amplified from genomic DNA with primers from the start codon (NdeI) to the stop codon (BamHI); calculated mass 40.47 kDa; Oligomeric state differs by method (dimer by SEC, mainly tetramer by native MS), so copies is left empty; No tag cleavage is described; also called ADP-PFK-A1; source: E. coli Rosetta (DE3), pET15b, …
- stoichiometry N [7]: 4
- Km ([8]; 10 mM MgCl2, pH 7.7, 30 °C): 0.14 (±0.01) mM
- kcat ([8]; 10 mM MgCl2, pH 7.7, 30 °C): 5.9 s⁻¹
- stoichiometry N [9]: 2
